The text below walks through data of patent publication US20220380801A1, “TRIPARTITE SYSTEMS FOR PROTEIN DIMERIZATION AND METHODS OF USE” (priority 2019, published 2022).

B1: PRSIM_47: Tn3 PRSIM binding molecule, SEQ ID NO: 9 (protein)
chain: RLDAPSQIEVKDVTDTTALITWSRPGVSIWYFELTYGIKDVPGDRTTIKLDYRSYYYSIGNLKPDTEYEVSLISGSYGLVGVRASNPAKITFKTGL
modifications: PRSIM_47
B2: PRSIM_36: Tn3 PRSIM binding molecule, SEQ ID NO: 8 (protein)
chain: RLDAPSQIEVKDVTDTTALITWSWPRDDDYDIWYFELTYGIKDVPGDRTTIKLLNYASPYSIGNLKPDTEYEVSLISVVPDTYGRGTSNPAKITFKTGL
modifications: PRSIM_36
B3: PRSIM_32: Tn3 PRSIM binding molecule, SEQ ID NO: 6 (protein)
chain: RLDAPSQIEVKDVTDTTALITWWSPRYYYASISGFELTYGIKDVPGDRTTIKLDYASNDYSIGNLKPDTEYEVSLISWNYGDWRYSSSNPAKITFKTGL
modifications: PRSIM_32

The first assay addresses T1, HCV NS3/4A PR (S139A) (Hepatitis C virus subtype 1a, UniProt A8DG50, A1066T/I1043Q/I1044E/L1039E/L1040E/L1047Q/S1165A, form not given). Briefly: HTRF binding screen. As to conditions: in the presence of simeprevir. How it is done: scFv and Tn3 PRSIM binding molecules that were selective for the HCV NS3/4A PR (S139A) were identified in homogeneous time-resolved fluorescence (HTRF®) assays run in parallel to measure binding in the presence and absence of simeprevir. HCV NS3/4A PR (S139A), and serial dilutions of purified PRSIM binding molecules, were prepared in assay buffer (PBS containing 0.4 M potassium fluoride and 0.1% BSA). Streptavidin cryptate (Cisbio) was pre-mixed with either anti-FLAG XL665 (to detect the Tn3 molecules) or anti-c-myc XL665 (to detect the scFv molecules) in assay buffer. For each assay 2.5 μl of sample titration was added to 2.5 μl HCV NS3/4A PR (S139A) and 2.5 μl of pre-mixed detection reagents. Either 2.5 μl simeprevir or 2.5 μl of a DMSO blank were also added to each well. Background was defined using wells with zero sample addition. Assay plates were incubated overnight at 4° C., prior to reading the time resolved fluorescence at 620 nm and 665 nm emission wavelengths using a PerkinElmer Envision plate reader. Data was analysed by calculating % Delta F values for each sample. Delta F was determined according to equation 1.
% Delta F=((sample 665 nm/620 nm ratio value)−(background 665 nm/620 nm ratio value)/(background 665 nm/620 nm ratio value))×100 Equation 1
Selective binding molecules are defined as those scFv and Tn3 PRSIM binding molecules that bind to HCV NS3/4A PR (S139A) in complex with simeprevir and no binding to HCV NS3/4A PR (S139A).
A general note: TR-FRET usually uses a lanthanide donor and a delayed reading to cut background.
In the case of B1, the “HTRF max. signal (% delta F)” value is recorded as 1367 % delta F.
Still for that read-out and setting: then B2, with 1440 % delta F.
Same read-out and setting: for B3 the value was 1955 % delta F.

The target in the next assay is T1, HCV NS3/4A PR (S139A). Kind of assay: Biacore 8K binding kinetics of PRSIM binding molecules. Particulars: 10 nM simeprevir present. As to the method:
The scFv and Tn3 PRSIM binding molecules were covalently immobilised to a CM5 chip surface using standard amine coupling techniques at a concentration of 1 μg/ml in 10 mM sodium acetate pH 4.5.
(§1) The HCV NS3/4A PR (S139A), or BSA control, was diluted 1:4 (1.25-20 nM)±10 nM simeprevir in 10 mM Hepes pH 7.4, 150 mM NaCl, 0.05% Surfactant P20, 0.01% DMSO, ensuring constant simeprevir and DMSO concentration. The samples were flowed over the chip at 50 μl/min using single cycle kinetics, with 120 sec association and 600 sec dissociation. The chip surface was regenerated with two 20 sec pulses of 10 mM Glycine-HCl pH 3.0. The final sensorgrams were analysed using the Biacore 8K Evaluation Software and the affinity constant KD was determined using a 1:1 binding model. The same method was used for measuring the affinity of the HCV NS3/4A PR mutants for PRSIM_23 with minor deviations. The mutants were diluted 1:4 (2.5-40 nM)±simeprevir in 10 mM Hepes pH 7.4, 150 mM NaCl, 0.05% Surfactant P20, 0.08% DMSO, ensuring constant simeprevir and DMSO concentration. The samples were flowed over the chip at 50 μl/min using single cycle kinetics, with 180 sec association and 600 sec dissociation.
On the technique in general: In SPR one partner is held on a chip, and binding of the other changes the refractive index at the surface.
For the molecule B1, the Rmax is listed as 9 RUs, the ka turned out to be 1.32e+10 M⁻¹ s⁻¹ and the kd turned out to be 51.2 s⁻¹.
For B2, in that order: 214.4 RUs, 5.15e+06 M⁻¹ s⁻¹ and 0.0498 s⁻¹.
For B3, in that order: 19.9 RUs, 2.51 E+09 M^−1 s^−1 and 40.1 s⁻¹.

The next assay concerns the target BSA (Bos taurus, UniProt P02769). Briefly: Biacore 8K BSA control. Type of assay: binding. More on the design: key: # = no binding; * = minimal non-specific binding. As to conditions: 10 nM simeprevir present. How it is done: as §1
As for B1, the BSA control entry is “#”.
Same read-out and setting: then B2, with “#”; and B3, with “#”.

A further assay relates to luciferase reporter gene in HEK293 cells. Briefly: Transcriptional regulation assay (split transcription factor), luciferase reporter. Type of assay: cell-based, human. Particulars: PRSIM fused to AD; one copy. The text has this: The iDimerize regulated transcription system (Takara) was used to test the ability of PRSIM-based CIDs to regulate gene expression. […] The DBD and AD are separately fused to the two protein components of a CID such that, only in the presence of the small molecule inducer, the AD is brought into close proximity to the DBD, recruiting the transcription machinery to a promoter harbouring the DBD recognition sites. The iDimerize regulated transcription system (Takara) provides two vectors, pHet-Act1-2 and pZFHD1-Luciferase. The pHet-Act1-2 vector encodes two fusion proteins that represent a positive control: one is a fusion between FRB (T82L mutant; DmrC) and an activation domain (AD) from human p65 (SEQ ID NO: 42); the other is a fusion protein comprised of a DNA binding domain (ZFHD1) (SEQ ID NO: 43) fused to three tandem copies of FKBP12 (DmrA). These sequences are preceded by a CMV promoter and separated by an internal ribosome entry site (IRES). The ZFHD1 vector encodes luciferase preceded by an inducible promoter consisting of 12 copies of the recognition sequence of the ZFHD1 DBD upstream of a minimal IL-2 promoter. Binding of the DBD to its recognition sequence and recruitment of the transcriptional machinery by the AD initiates transcription of the luciferase reporter gene. The DNA sequence encoding HCV NS3/4A PR (S139A) was purchased as a DNA string from GeneArt and cloned into the pHet-Act1-2 vector as either an N-terminal fusion partner to the activation domain (SEQ ID NO: 44) (replacing FRB) or as a C-terminal fusion partner to the DNA binding domain (SEQ ID NO: 45) (replacing FKBP12) with flexible linkers (TGGGGSGGGGS (SEQ ID NO: 185) and SA, respectively) between the fusion partners. Subsequently, sequences encoding one copy of a panel of 12 PRSIM molecules (Table 2) were purchased as DNA strings from GeneArt and were cloned using Gibson assembly into the HCV NS3/4A PR (S139A)-containing pHetAct1-2 constructs described above, as a fusion partner to either the DBD (SEQ ID NOS: 46-56) or AD (SEQ ID NOS: 57-67), respectively. An equivalent construct was generated to replace the three copies of FKBP12 in pHet-Act1-2 with a single copy of FKBP12. The sequence of the constructs encoding both activation domain and DNA-binding domain fusion proteins was confirmed by Sanger sequencing of the entire coding region.
Sequences encoding the three HCV NS3/4A PR (S139A) mutants (Table 6) were purchased as DNA strings from GeneArt and were cloned using Gibson assembly into the pHetAct1-2 HCV NS3/4A PR (S139A)-PRSIM_23 (3 tandem copy) construct described above as a fusion partner to the AD (SEQ ID NOs: 211-216).
All transcriptional regulation assays were performed in adherent HEK293 cells cultured in 384-well plates. Cells enzymatically dissociated from a tissue culture flask were counted and plated at 7.5×10^3 cells/well in a 384-well plate. The plates were incubated overnight at 37° C. with 5% CO2 to allow the cells to adhere. On day 2, the cells were co-transfected with a pHet-Act1-2 plasmid (containing the FRB:FKBP12 control fusion proteins (Clontech) or the HCV NS3/4A PR (S139A):PRSIM fusion proteins) and a pZFHD1 plasmid (encoding either luciferase (Clontech) or NanoLuc-PEST (as described above)) using Lipofectamine LTX (ThermoFisher). On day 3, wells were treated with different concentrations of either A/C heterodimeriser (for the FRB:FKBP12 control), simeprevir or with vehicle control, and 24 hours later luminescence was quantified with an Envision plate reader immediately following addition of SteadyGlo luciferase substrate (Promega) or Nano-Glo Vivazine luciferase substrate (Promega). Alternatively, reverse transfections were carried out on Day 1, addition of dimeriser on Day 2 and luminescence quantified 24 hours later on Day 3.
Luminescence readings were converted into fold-change by dividing the signal in the presence of simeprevir by that in the absence of simeprevir.
In general terms: Reporter assays use an easily measured gene product as a stand-in for the process of interest.
Molecule B1 had a Max fold change of 3.85.
Same read-out and setting: for B2 the value was 33.74; for B3, 2.2.

The assay is the same for the next values; noted with them: PRSIM fused to AD; one copy; simeprevir dose-response; read-out: EC50.
For B1, the EC50 (as a rule, the midpoint of the concentration-response curve) was found to be 6.15 nM.
Regarding B2, the EC50 was 3.54 nM.
On the same count and under the same terms, then B3, with 12.3 nM.

Still in this assay, the particulars now being: PRSIM fused to DBD; one copy.
The molecule B1 displayed a Max fold change of 3.
Same read-out and setting: for B2 the value was 73.3; for B3, 65.77.

The same assay, now with this note: PRSIM fused to DBD; one copy; simeprevir dose-response; read-out: EC50.
Take B1: the EC50 worked out at 8.87 nM.
Still for that read-out and setting: then B2, with 5.66 nM.
On the same count and under the same terms, for B3 the value was 29.3 nM.
